From patent publication US5783681, “Androgen regulation with DNA sequences of rat probasin gene” (University of Manitoba) come the findings set out here.

Series [1] has as its target T1, glucocorticoid receptor (GR) (Rattus norvegicus) (UniProt P06536).
T1 sequence: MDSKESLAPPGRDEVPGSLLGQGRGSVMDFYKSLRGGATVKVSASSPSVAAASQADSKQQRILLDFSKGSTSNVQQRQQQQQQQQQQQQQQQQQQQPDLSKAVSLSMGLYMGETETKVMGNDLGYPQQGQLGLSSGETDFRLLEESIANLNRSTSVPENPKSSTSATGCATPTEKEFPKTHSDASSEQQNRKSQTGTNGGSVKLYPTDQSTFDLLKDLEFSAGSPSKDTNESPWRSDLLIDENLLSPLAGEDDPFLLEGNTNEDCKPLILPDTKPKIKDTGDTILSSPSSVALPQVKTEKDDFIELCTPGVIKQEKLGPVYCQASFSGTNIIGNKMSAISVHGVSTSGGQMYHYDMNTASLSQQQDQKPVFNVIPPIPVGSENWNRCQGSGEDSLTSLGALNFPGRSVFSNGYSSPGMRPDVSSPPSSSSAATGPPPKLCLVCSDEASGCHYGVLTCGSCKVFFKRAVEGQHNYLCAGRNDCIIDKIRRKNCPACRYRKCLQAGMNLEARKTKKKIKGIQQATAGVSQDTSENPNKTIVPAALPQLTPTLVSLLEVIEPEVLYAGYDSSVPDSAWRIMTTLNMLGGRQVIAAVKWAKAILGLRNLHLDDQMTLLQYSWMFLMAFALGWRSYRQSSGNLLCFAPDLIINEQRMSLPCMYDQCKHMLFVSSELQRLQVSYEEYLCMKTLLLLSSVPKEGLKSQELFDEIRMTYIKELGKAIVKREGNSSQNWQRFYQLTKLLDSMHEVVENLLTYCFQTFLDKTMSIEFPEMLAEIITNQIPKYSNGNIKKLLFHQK
In words: cell_activity. Particulars: DEX, CAT reporter.

In series [2] the target is T2, androgen receptor (AR) (Rattus norvegicus) (UniProt P15207).
T2 sequence: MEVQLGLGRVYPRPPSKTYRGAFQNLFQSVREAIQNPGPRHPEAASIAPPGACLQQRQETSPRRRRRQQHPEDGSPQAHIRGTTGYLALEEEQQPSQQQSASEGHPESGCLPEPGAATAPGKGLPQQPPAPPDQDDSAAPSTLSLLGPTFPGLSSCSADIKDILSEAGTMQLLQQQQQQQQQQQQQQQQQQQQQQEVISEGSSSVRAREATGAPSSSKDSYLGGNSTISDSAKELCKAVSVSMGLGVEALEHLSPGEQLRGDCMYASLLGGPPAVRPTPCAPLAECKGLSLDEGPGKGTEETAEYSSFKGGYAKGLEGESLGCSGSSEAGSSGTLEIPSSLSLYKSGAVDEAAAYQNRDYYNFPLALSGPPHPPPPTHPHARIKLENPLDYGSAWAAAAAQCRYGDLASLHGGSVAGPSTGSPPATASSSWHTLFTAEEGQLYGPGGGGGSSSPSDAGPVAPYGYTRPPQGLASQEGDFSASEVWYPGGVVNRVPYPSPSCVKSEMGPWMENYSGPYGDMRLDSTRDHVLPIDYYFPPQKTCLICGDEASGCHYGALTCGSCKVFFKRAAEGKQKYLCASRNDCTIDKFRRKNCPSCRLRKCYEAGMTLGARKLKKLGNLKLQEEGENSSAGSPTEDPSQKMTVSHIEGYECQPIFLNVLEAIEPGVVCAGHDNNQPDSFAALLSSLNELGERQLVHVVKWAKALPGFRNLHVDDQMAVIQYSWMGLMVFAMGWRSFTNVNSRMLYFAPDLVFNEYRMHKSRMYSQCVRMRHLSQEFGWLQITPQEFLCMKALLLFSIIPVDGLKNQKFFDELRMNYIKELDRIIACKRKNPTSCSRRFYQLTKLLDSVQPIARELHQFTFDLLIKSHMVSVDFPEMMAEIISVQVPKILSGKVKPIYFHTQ
In words: cell_activity. Particulars: DHT, CAT reporter.

Series [3] concerns the target androgen receptor V865M V865M (Homo sapiens) (UniProt P10275). In words: cell_activity. Particulars: 10 nM DHT; background 4.2.
Series [4] addresses T3, androgen receptor V865L V865L (Homo sapiens) (UniProt P10275).
T3 sequence: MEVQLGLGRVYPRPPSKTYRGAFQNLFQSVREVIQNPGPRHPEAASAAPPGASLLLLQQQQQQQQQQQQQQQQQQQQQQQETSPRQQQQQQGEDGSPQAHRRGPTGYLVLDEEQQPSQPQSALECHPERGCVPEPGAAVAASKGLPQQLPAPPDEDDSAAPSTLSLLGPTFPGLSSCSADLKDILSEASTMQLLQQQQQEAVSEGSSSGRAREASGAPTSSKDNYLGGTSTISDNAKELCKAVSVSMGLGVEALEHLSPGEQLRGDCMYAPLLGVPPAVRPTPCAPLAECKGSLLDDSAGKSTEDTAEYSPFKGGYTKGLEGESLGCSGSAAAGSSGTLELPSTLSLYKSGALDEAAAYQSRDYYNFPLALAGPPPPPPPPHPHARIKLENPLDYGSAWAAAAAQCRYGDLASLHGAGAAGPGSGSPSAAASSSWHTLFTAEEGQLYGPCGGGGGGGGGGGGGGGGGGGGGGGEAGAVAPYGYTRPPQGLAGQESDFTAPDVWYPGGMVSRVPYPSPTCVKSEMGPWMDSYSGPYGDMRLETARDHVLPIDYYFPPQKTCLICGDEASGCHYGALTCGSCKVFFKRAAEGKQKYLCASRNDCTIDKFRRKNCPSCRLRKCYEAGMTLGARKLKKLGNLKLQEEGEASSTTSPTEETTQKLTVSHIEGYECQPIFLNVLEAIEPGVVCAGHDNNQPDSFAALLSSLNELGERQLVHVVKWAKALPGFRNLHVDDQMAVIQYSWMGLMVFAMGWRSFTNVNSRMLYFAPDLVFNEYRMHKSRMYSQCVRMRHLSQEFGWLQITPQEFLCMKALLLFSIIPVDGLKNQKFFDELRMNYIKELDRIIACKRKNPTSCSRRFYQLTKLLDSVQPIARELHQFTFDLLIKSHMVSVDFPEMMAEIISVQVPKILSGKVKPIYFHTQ
In words: cell_activity. Particulars: 10 nM DHT; background 4.2.

Series [5] has as its target T4, androgen receptor (hAR) wild type (Homo sapiens) (UniProt P10275).
T4 sequence: T3 sequence
In words: cell_activity. The following applies: 10 nM DHT; background 4.2.

Series [6] concerns the target T5, glucocorticoid receptor (GR) (Rattus norvegicus, UniProt P06536 P06536:1-795). In words: cell_activity; DEX, TK promoter CAT reporter. The following applies: chain copies: 2. On the procedure: (§1) Cells which had undergone transient transfection were harvested in phosphate buffered saline containing 1 mM EDTA. After centrifugation at 2000×g for 4 min at room temperature, cells were lysed in 0.1M Tris-HCl/0.1% Triton X-100, pH 7.8 for 15 min on ice. Insoluble material was removed by centrifugation at 14,500×g, 15 minutes, at 4° C. The CAT activity in the cell extract was determined by a two-phase fluor diffusion assay (Nachtigal et al., 1989). Also, the DNA was isolated from the insoluble material and 2 µg samples were placed in duplicate on nitrocellulose membrane via slot-blot apparatus and probed with ^32P-labelled CAT insert DNA. Autoradiograms were analyzed by densitometry and all CAT activity data was normalized for transfection efficiency. For transgenic mice, a total cellular extract of each tissue was assayed for CAT activity.
(§2) Due to the lack of appropriate cell lines containing either androgen receptors and/or prostatic in origin, a range of cell lines was tested. The human prostatic cells LNCaP would express and androgen regulate PB-CAT-while HeLa, prostatic DU-145 and PC-3 cells required co-transfection of an androgen receptor expression vector for androgen regulation. […]

Series [7] concerns the target T6, androgen receptor (AR) (Rattus norvegicus, UniProt P15207 P15207:1-902). In words: cell_activity; DHT, TK promoter CAT reporter. The following applies: chain copies: 2. On the procedure:
as §1, §2

Series [8] has as its target T6, androgen receptor (AR). In words: cell_activity; DHT, CAT reporter. Particulars: chain copies: 2. On the procedure: as §1, §2
Series [9] deals with T5, glucocorticoid receptor (GR). In words: cell_activity; DEX, CAT reporter. Particulars: chain copies: 2. How it is done: as §1, §2

Consider “ATGATAGCATCTTGTTCTTAGTCTTTTTCTTAATAGGGACATAAAGCCCACAAATAAAAATATGCCTGAAGAATGGGACAGGCATTGGGCATTGTCCATGCCTAGTAAAGTACTCCAAGAACCTATTTGTATACTAGATGACACAATGTCAATGTCTGTGTACAACTGCCAACTGGGATGCAAGACACTGCCCATGCCAATCATCCTGAAAAGCAGCTATAAAAAGCAGGAAGCTACTCTGCACCTTGTCAGTGAGGTCCAGATACCTACAG (double strand) [probasin -244 to +28]”, for which the results for the activity (fold induction) in series [1] and in series [2] were 9 and 49, respectively.

The molecule “TAGTCATCATGTTTAAACATCTACCATTCCAGTTAAGAAAATATGATAGCATCTTGTTCTTAGTCTTTTTCTTAATAGGGACATAAAGCCCACAAATAAAAATATGCCTGAAGAATGGGACAGGCATTGGGCATTGTCCATGCCTAGTAAAGTACTCCAAGAACCTATTTGTATACTAGATGACACAATGTCAATGTCTGTGTACAACTGCCAACTGGGATGCAAGACACTGCCCATGCCAATCATCCTGAAAAGCAGCTATAAAAAGCAGGAAGCTACTCTGCACCTTGTCAGTGAGGTCCAGATACCTACAG (double strand) [probasin -286 to +28]” gave an activity (dpm/min/mg protein) in series [3] of 42.

In series [1], “ATAGCATCTTGTTCTTAGTGGGCATTGTCCATGCCTAGTAAAGTACTCCAAGAACCTATTTGTATACTAGATGACACAATGTCAATGTCTGTGTACAACTGCCAACTGGGATGCAAGACACTGCCCATGCCAATCATCCTGAAAAGCAGCTATAAAAAGCAGGAAGCTACTCTGCACCTTGTCAGTGAGGTCCAGATACCTACAG (double strand) [ARE-1 adjacent to probasin -158 to +28]” had an activity (fold induction) of 21.

In the case of “TAGTCATCATGTTTAAACATCTACCATTCCAGTTAAGAAAATATGATAGCATCTTGTTCTTAGTCTTTTTCTTAATAGGGACATAAAGCCCACAAATAAAAATATGCCTGAAGAATGGGACAGGCATTGGGCATTGTCCATGCCTAGTAAAGTACTCCAAGAACCTATTTGTATACTAGATGACACAATGTCAATGTCTGTGTACAACTGCCAACTGGGATGCAAGACACTGCCCATGCCAATCATCCTGAAAAGCAGCTATAAAAAGCAGGAAGCTACTCTGCACCTTGTCAGTGAGGTCCAGATACCTACAG (double strand) [probasin -286 to +28 ARE2*]”, the activity (dpm/min/mg protein) in [3] came out at 49; in [4], 122; in [5], 177.

B1: probasin -244 to -96 (dsDNA)
DNA 1: ATGATAGCATCTTGTTCTTAGTCTTTTTCTTAATAGGGACATAAAGCCCACAAATAAAAATATGCCTGAAGAATGGGACAGGCATTGGGCATTGTCCATGCCTAGTAAAGTACTCCAAGAACCTATTTGTATACTAGATGACACAATGT
DNA 2: ACATTGTGTCATCTAGTATACAAATAGGTTCTTGGAGTACTTTACTAGGCATGGACAATGCCCAATGCCTGTCCCATTCTTCAGGCATATTTTTATTTGTGGGCTTTATGTCCCTATTAAGAAAAAGACTAAGAACAAGATGCTATCAT
B1: the activity in series [6] came to 96 fold induction; in series [7], 61 fold induction.

B2: probasin -158 to +28 (dsDNA)
DNA 1: GGGCATTGTCCATGCCTAGTAAAGTACTCCAAGAACCTATTTGTATACTAGATGACACAATGTCAATGTCTGTGTACAACTGCCAACTGGGATGCAAGACACTGCCCATGCCAATCATCCTGAAAAGCAGCTATAAAAAGCAGGAAGCTACTCTGCACCTTGTCAGTGAGGTCCAGATACCTACAG
DNA 2: CTGTAGGTATCTGGACCTCACTGACAAGGTGCAGAGTAGCTTCCTGCTTTTTATAGCTGCTTTTCAGGATGATTGGCATGGGCAGTGTCTTGCATCCCAGTTGGCAGTTGTACACAGACATTGACATTGTGTCATCTAGTATACAAATAGGTTCTTGGAGTACTTTACTAGGCATGGACAATGCCC
Turning to B2, the figures for the activity in series [8] and in [9] were 1.4 fold induction and 1.2 fold induction, respectively.
